Data taken from article PMC8269367.
pKd: −log10 of the molar value.

Molecular target: T1, CTCF (Mus musculus) (UniProt Q61164)
T1 sequence: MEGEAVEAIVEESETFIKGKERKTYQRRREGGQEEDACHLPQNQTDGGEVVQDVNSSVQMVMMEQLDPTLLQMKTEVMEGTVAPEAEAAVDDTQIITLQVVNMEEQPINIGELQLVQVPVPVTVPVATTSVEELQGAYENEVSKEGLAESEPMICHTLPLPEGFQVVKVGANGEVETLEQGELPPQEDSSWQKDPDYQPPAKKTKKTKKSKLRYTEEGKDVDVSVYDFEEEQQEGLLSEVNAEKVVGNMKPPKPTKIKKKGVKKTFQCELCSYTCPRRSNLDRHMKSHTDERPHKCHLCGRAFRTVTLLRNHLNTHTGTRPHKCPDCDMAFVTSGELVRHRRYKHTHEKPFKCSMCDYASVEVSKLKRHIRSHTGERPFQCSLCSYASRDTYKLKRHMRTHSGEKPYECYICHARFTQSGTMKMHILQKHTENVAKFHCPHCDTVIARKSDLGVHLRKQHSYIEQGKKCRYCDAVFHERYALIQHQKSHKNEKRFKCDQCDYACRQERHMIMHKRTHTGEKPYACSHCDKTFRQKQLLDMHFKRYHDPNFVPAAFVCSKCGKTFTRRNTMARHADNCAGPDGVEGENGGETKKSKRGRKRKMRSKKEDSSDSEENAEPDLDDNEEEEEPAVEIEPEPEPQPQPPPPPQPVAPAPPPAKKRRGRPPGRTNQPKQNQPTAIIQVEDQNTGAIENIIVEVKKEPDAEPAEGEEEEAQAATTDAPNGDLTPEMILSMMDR
Assay: MST
Details: 50 nM labelled protein, 0.61 nM-20 uM oligo, 140 mM potassium phosphate pH 7.2 (6.7 for i-motif N1-3; CTCF oligo CD at pH 6.7), 10 mM NaCl in oligo …

Row | Substance | pKd
1 | GGGGGGCGGGGGGCGGGGGGGGGGG [BDN-G4] | 6.92
2 | control CTCF duplex | 7.10
3 | GGGGGTGGGGGGTGGGGGGAGGGGGG [SHA-G4] | 7.15

Molecular target: HMGN3 (Homo sapiens) (UniProt Q15651)
Assay: MST
Details: 50 nM labelled protein, 0.61 nM-20 uM oligo, 140 mM potassium phosphate pH 7.2 (6.7 for i-motif N1-3; CTCF oligo CD at pH 6.7), 10 mM NaCl in oligo …

Sequence of HMGN3 (Homo sapiens) (Q15651 whole entry): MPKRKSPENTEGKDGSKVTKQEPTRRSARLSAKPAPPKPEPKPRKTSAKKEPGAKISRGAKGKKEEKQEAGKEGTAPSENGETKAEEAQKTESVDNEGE

Row | Substance | pKd
4 | TTTTTTTTTTTTTTTTTTTT [T20] | < 4.70
5 | AAGGAAAAGAAAAAA (double strand) [N3-2/N3C-2] | < 4.70
6 | GGGGACGAAGGGGGCGCGGTGCCTCCTGG [N3-M7] | 6.82
7 | AAAAAAAAAAAAAAAAAAAA [A20] | < 4.70
8 | GGGGCCAGTGGACGCGGGGAGCCTGCGGG [N3-M6] | < 5.00
9 | GGAGCAGGTGGGGAGCAGGCCGGAAGAGG [N3-M5] | < 4.70
10 | TTTTCTTCTTCTTTT (double strand) [N3-1/N3C-1] | < 4.70
11 | CAATCGGATCGAATTCGATCCGATTG [hair (ds26)] | < 4.70
